# Results: the nanobody polyreactivity screen of Harvey et al. (2022)
# Experiment: yeast display, Sf9 membrane polyspecificity reagent, FACS + sequencing; frameworks hold sequencing errors
# Outline: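 Galactose induction of a Saccharomyces cerevisiae BJ5465 synthetic nanobody display library ran 36–48 hours. The cells were then stained for 1 hour at 4 °C with 10% biotinylated, detergent-solubilized Sf9 membrane reagent, pulled down on streptavidin microbeads and FACS-sorted into low and high (top ~1%) gates on expression and reagent-binding fluorescence. Labels for polyreactivity follow the gate of origin.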
row,Sequence,polyreactivity (PSR sort gate)
1,QVQLVESGGGLVQAGGSLRLSCAASGRIFPYNAMGWYRQAPGKERELVATNTSGRSTYYADSVKGRFTISRDNAKNTVDVPLNSLKPEDTAVYYCAARYPSIYYYRYDYWGQGTQVTVSS,high polyreactivity
2,QVQLVESGGGLVQAGGSLRLSCAASGRIFPYYAKGWYRQAPGKERELVAAINSGGSTYYADSVKGRFTISRDNAQNTVYLQMNSLKPEDTAVYYCIADVLYEDGFFWDDYWGQGTQVTVSS,low polyreactivity
3,QVQLVESGGGLVQAGGSLRLSCAASGRIFPYYAMGWSRQAPGKVRELVAAISVSDVRTYYPDSVKGRFTISRDNAKNTVYLQMNSLKPEDTAVYYCAAYWYRSPQSGLDYWGQGTQVTVSS,low polyreactivity
4,QVQLVESGGGLVQAGGSLRLSCAASGRIFPYYAMGWYIQAPGKERELVAAIDGIGDTTYYADSVKGRFTISRDNAKNTVYLQMNSLKPEDTAVYYCNADGDAYYWGSYDEEDYWGQGTQVTVSS,low polyreactivity
5,QVQLVESGGGLVQAGGSLRLSCAASGRIFPYYAMGWYRQAPGKDRELVAAISWSGGRTYYADSVKGRFTISRDYAKNTVYLQMNSLKPDDNAVYFCAAGHSYRPYYYYGEYDYWGQGTQVTVSS,high polyreactivity
6,QVQLVESGGGLVQAGGSLRLSCAASGRIFPYYAMGWYRQAPGKDRELVAANSYRGPRTSYADSVKGRFTISRDNAKNTAYLQRNSLKPEDTAVYYCAAVSVSWRGGRSSYEYWGQGTQVTVSS,high polyreactivity
7,QVQLVESGGGLVQAGGSLRLSCAASGRIFPYYAMGWYRQAPGKERELVAGISYSGTSTYYADSVKGRFTISRDNAKNTVYLQMNSLKPEDTAVYYCATTSWRYGYDYWGQGTQVTVSS,high polyreactivity
8,QVQLVESGGGLVQAGGSLRLSCAASGRIFPYYAMGWYRQAPGKERELVATISSGGRTNYADSVKGRFTMSRDNAKNTVYVQMNSLKPEDTAVYYCAADYRTPTDVEYDYWGQGTQVTVSS,high polyreactivity
9,QVQLVESGGGLVQAGGSLRLSCAASGRIFPYYTLGWYTQAPGKERELVATITTGGSTNYADSVKGRFTLSRDNAENTVYLKMNSLKPEDTAVYYCNNDGVVEVRFTGRQEYDYWGQGTQVTVSS,low polyreactivity
10,QVQLVESGGGLVQAGGSLRLSCAASGRIFPYYTMGWYRQAPGKERELVAAISRRGSSTYYADSVKGRFTISRDNAQNTVYLQMNSLKPEDTAVYNCAADRGGYTRTGEYDYWGQGTQVTVSS,high polyreactivity
11,QVQLVESGGGLVQAGGSLRLSCAASGRIFPYYVMGWYRQAPGKERELVAAISRSGSSTYYADSVKGRFTISRDNAKNTVSLQMNSLKPEDTAVYSCAADYNWSPYYTRGDYWGQGTQVTVSS,high polyreactivity
12,QVQLVESGGGLVQAGGSLRLSCAASGRIFPYYVMGWYRQAPGKERELVAAISRSGSSTYYADSVKGRFTITRDNAKNTVYLQMNSLKPEDTAVYYCAADYNWSPYYTRGDYWGQGTQVTVSS,high polyreactivity
13,QVQLVESGGGLVQAGGSLRLSCAASGRIFQDYAMGWYRQAPGKERELVASIRWSSTSTYYADSVKGRFTISRDNAKNTVYLQMNSLKPEVSAVYYCAKRPFYLTYFRDDYWGQGTQVSVSS,low polyreactivity
14,QVQLVESGGGLVQAGGSLRLSCAASGRIFQFNFMGWYRQAPGKERELVAAISGSGGSTYADSVKGRFTISRDNAKNTVYLQMNSLKPEDTAVYYCATEYVVYRPRGRLQKFDYWGQGTQVTVSS,low polyreactivity
15,QVQLVESGGGLVQAGGSLRLSCAASGRIFQGNAMGWYRQAPGKERELVAAITSSGSSTYYADSVKGRFTISRDNAKNTVYLQMNSLKPEDTAVYYCAARATGPIMYYWGQGTQVTVSS,high polyreactivity
16,QVQLVESGGGLVQAGGSLRLSCAASGRIFQGYAMGWYRQAPGKERELDAAITVRGGTTYYADSVKGRFTISRDNAKNTVYLQMNRRKPEDTAVYYCNAAKLIHCYQYVYPASNSRYYYWGQGTQVTVSS,low polyreactivity
17,QVQLVESGGGLVQAGGSLRLSCAASGRIFQGYAMGWYRQAPGKERELVARITFRGARTYYADSVKGRFTISRDNAKITVYLHMNCLKPEDTAVYYFAKDAETYYWGSYKSLYDYWGQGTQVTVSS,low polyreactivity
18,QVQLVESGGGLVQAGGSLRLSCAASGRIFQGYAMGWYRQAPRKERELVASITVRGGTTYYADSVKGRFTISRDHAKNTVYLQMISLKPEDTAVYYCNAAKLIHGYQSVYPGSNSRYYYWGQGTQVTVSS,low polyreactivity
19,QVQLVESGGGLVQAGGSLRLSCAASGRIFQHNTMGWYRQAPGKEREFVAAIRRSGGSTYYADSVKGRFTISRDNAKNTVYLQMNSLKPEDTAVYYCAARDYPTGTRRWGGGDSWGQGTQVTVSS,low polyreactivity
20,QVQLVESGGGLVQAGGSLRLSCAASGRIFQKNAMGWYRQAPGKERELVAAISSGGSTNYADSVKGRFTISRDNAKNTVYLQMNSLKPEDTAVYYCAVESVYEYGGYVDSAYDYWGQGTQVTVSS,low polyreactivity
21,QVQLVESGGGLVQAGGSLRLSCAASGRIFQLYAMGWYRQRPGKERELVAAIRYSGDSTYYADSVKGRFTISRDNAKNTVYLQMNSLKPEDTAVYYCAAYWVYLSYYRYDYWGQGTQVTVSS,high polyreactivity

row,Sequence,polyreactivity (PSR sort gate)
1,QVQLVESGGGLVQAGGSLRLSCAASGRIFQNYAMGWYRQATGKERELVAAIRRSSGRSYYADSVKGRFTISRDNAKNTVYLLMNSLKPEDTAVYYCNAVRGEEYDYWGQGTQVTVSS,high polyreactivity
2,QVQLVESGGGLVQAGGSLRLSCAASGRIFQPYTMGWYRQAPGKERELVAAITRSGGSTYYADSVKGRFTISRDNAKNTVYLQMNSLKPEDTAVYYCAADSRPYGKYDYWGQGTQVTVSS,high polyreactivity
3,QVQLVESGGGLVQAGGSLRLSCAASGRIFQRYAMGWYRQAPGKERELVATITRSGGSTYYADSVKGRFTISRDNAKNTVYLQMNSLKPEDTAVFYCSRQWYRYGMGYWGQGTQVSVSS,high polyreactivity
4,QVQLVESGGGLVQAGGSLRLSCAASGRIFQRYAMGWYSQAPGKERELVAAISSRGGRTFYADSVKGRFTISRDNAKNTVYLQMNSLKPEDTAAYYCAATATVGCVSFDYWGQGTQVTVSS,high polyreactivity
5,QVQLVESGGGLVQAGGSLRLSCAASGRIFQRYMGWYRQAPGKERELVAAISRRGGSTYYADSVKARFTISRDNAKNTVYLQMNSLKPEDTAVYYWNAVNVLAPSRGRRYDYWGQGTQVTVSS,high polyreactivity
6,QVQLVESGGGLVQAGGSLRLSCAASGRIFQSNAMGLYRQAPGKERELVAAISYSGGGSTYYADSVNGRFTISRDNAKNTVYLQMNSLKPEDTAVYYCAARRVGGCFYTWRNPAYEYWGQGTQVTVSS,high polyreactivity
7,QVQLVESGGGLVQAGGSLRLSCAASGRIFQSNVMGWYRQAPGKERELVAGISTSGGSTYYADSVKGRFTISRDYAKNTVYLQMNSLKPEDTAVYYCAKDPSAVKVPYGYPVIKKTYNSWGQGTQVTVSS,low polyreactivity
8,QVQLVESGGGLVQAGGSLRLSCAASGRIFQSYAMGWYRQAPGKERELVAGIRAGGGRTYYADSVKGRFTISRDNAKNTVYLQMNSLKPEDTAVYYCAAGGRPYKLDFTRSDYWGEGTQVTVSS,low polyreactivity
9,QVQLVESGGGLVQAGGSLRLSCAASGRIFQVNAMGWYRQAPGKERELVAAITYSGGTTYYADSVKGRFTISRDNAKNTVYLQMNSLKPEDTAVYYCAAEGYGAQGDPWQYGYEYWGQGTQVTVSS,low polyreactivity
10,QVQLVESGGGLVQAGGSLRLSCAASGRIFQWYAMGSYRQAPGKERELVATISDGDSTNYADSVKGRFTISRDNAKNTVFAQMNSLKTEDTEVYYCAALDSYYDSYYWYDYWGQGTQVTVSS,high polyreactivity
11,QVQLVESGGGLVQAGGSLRLSCAASGRIFQYNAMGWYRQSPGKERELVAAIRRGGGSTYYADSVKGRFTISRDNAKNTVYLQMNSLKPEDTAVYYCAARRKRVSFYPEYDYWGQGTQVTVSS,low polyreactivity
12,QVQLVESGGGLVQAGGSLRLSCAASGRIFQYYAMGWYRQAPGKERELVAAIDQSGDTTYYADSVKGRFTISRDNAKNTVYLQMNSLKPEDTAVYYCAAGYDWAYHWVPQWMYFWGQGTQVTVSS,low polyreactivity
13,QVQLVESGGGLVQAGGSLRLSCAASGRIFQYYAMGWYRQAPGKERELVAAISRGGSTNYADSVKGRFTISRDNAKNTVYLQMNSLKPEDTAVYFCAADEYRYYFYRAGIGFDYWGQGTQVTVSS,low polyreactivity
14,QVQLVESGGGLVQAGGSLRLSCAASGRIFQYYAMGWYRQAPGKERELVAAISRTGSTYYADSVKGRFTISRDNGKNTVYLQMNRLNPEDTAVYYCAADYWPQSNRWVYFRYGYWGQGTQVTVSS,high polyreactivity
15,QVQLVESGGGLVQAGGSLRLSCAASGRIFQYYTMGWYRQAPGKERELVAAISYGGGSTYYADSVKGRFTISRDHAKNTVYLQMNSLKPEDTAVYYCNAVTYSRRYAYYYWGQGTQVTVSS,high polyreactivity
16,QVQLVESGGGLVQAGGSLRLSCAASGRIFQYYTMGWYRQAPGKERELVAAITWSSSRTYYADSVKGRVTISRDNAKNTVYLQMNSLKPEDTAVNYCAAEAQAAWNDYTYWGQGTQVTVSS,high polyreactivity
17,QVQLVESGGGLVQAGGSLRLSCAASGRIFRANAMGWYRQAPGKERELVAAISYRGGSTYYADSVKGRFTISRDNAKNTVYLQMNSLKPEDTAVYYCAADSDRSVWIYGYWGQGTQVTVSS,low polyreactivity
18,QVQLVESGGGLVQAGGSLRLSCAASGRIFRAYAMGWYRQAPGKEREFVAAITWSGGSTYYADSVKGRFTISRDNAKNTVYLQMNSLKPEDTAVYYCAARGYSYRRRSQQFDYWGQGTQVTVSS,high polyreactivity
19,QVQLVESGGGLVQAGGSLRLSCAASGRIFRAYAMGWYRQAPGKERELVAVITGSGGSTYYADSVKGRFTISRDNAKNTVYLQMNSLKPEDTAVYYCAAPVHTASGRWVPGYYYWGQGTQVTVSS,high polyreactivity
20,QVQLVESGGGLVQAGGSLRLSCAASGRIFRAYAMGWYRQAPRKERELVAAISYRGGSTYYADSVKGRFTISRDNAKNTVYLQMNSLKPEDTAVYDCAADSDRSVWIYGYWGQGTQVTVSS,low polyreactivity
21,QVQLVESGGGLVQAGGSLRLSCAASGRIFRDNAMGGYRQAPGKERELVASISSRTGRTYYADSVKGRFTISRDNAKNTVYLQMNSLKPEDTAVYYCAAAFIYRGPGSLKFDYWGQGTQVTVSS,low polyreactivity
